Molecular target: BtAAV-10HB capsid viral proteins (VP1, VP2, VP3) assembled as the capsid (bat adeno-associated virus BtAAV-10HB)
Assay: cryo-EM structure

**Q.** For “BtAAV-10HB capsid viral proteins (VP1, VP2, VP3) assembled as the capsid (complex)”, which stoichiometry N is on record?
**A.** 60

Reference: paper PMC9744130
